Earlier results in PMC4468388.

Target: insulin receptor (Homo sapiens) (UniProt P06213)
Chain of UniProt P06213 (P06213 763-1382): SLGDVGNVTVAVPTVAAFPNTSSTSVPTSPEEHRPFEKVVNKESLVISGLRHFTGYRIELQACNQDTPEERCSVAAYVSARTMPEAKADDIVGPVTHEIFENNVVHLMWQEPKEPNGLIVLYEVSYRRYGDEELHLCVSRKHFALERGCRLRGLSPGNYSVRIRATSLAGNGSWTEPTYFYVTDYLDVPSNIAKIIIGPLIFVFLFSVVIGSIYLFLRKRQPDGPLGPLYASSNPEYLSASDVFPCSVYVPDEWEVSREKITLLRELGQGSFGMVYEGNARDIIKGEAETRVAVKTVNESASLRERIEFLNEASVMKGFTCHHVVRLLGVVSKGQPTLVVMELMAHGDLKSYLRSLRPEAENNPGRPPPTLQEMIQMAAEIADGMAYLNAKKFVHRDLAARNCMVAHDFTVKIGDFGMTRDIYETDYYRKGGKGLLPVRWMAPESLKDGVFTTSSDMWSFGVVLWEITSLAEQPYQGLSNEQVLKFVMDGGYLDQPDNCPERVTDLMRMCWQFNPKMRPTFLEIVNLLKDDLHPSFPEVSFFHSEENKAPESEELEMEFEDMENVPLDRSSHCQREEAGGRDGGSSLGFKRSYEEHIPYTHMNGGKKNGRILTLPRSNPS

Chain of insulin (P01308 90-110): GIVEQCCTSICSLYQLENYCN

insulin (from UniProt P01308)
Kd: < 1 nM
